Test results published in patent US9046519 (RSR, dated 2015).
Where two headings read alike, the source gives them in different places.

What was measured:
Assay in all cases: Scatchard, 125I-ligand, solubilised TSHR on tubes
[1] = target: T1, human thyrotropin receptor (TSHR), wild type, full length (human, UniProt P16473 21-764)
T1 construct: whole, on cells; Full length cDNA in pcDNA5.1/FRT, stably expressed in Flp-In-CHO cells; Cyclic AMP assays: on the cells; also called TSH receptor; Wild type TSHR
Procedure: (§1) Firstly, dilution profiles of each TSHR preparation were set up. In these experiments, plastic tubes (Maxisorp Star; NUNC) were coated overnight at 4° C. with 200 µL of a mouse monoclonal antibody to the TSHR C-terminus at 10 µg/mL in coating buffer (0.1 mmol/L Na_2CO$_3$ pH 9.2). After washing and post-coating (10 mg/mL of BSA in water) the tubes were washed with assay buffer (10 mmol/L Tris-HCl pH 7.8, 50 mmol/L NaCl and 1 mg/mL BSA) containing 0.1% Triton X-100. In the next step, 200 µL of solubilized wild type or mutated TSHR preparations were added to the tubes and incubated overnight at 4 C. […] After aspiration of the solutions, the tubes were washed and counted in a gamma counter.

TSHR Glu107 to Ala = target: T2, TSHR Glu107 to Ala (human, UniProt P16473 21-764)
T2 construct: whole, on cells; as m1
Procedure: as §1

TSHR Phe130 to Ala = target: T3, TSHR Phe130 to Ala (human, UniProt P16473 21-764)
T3 construct: whole, on cells; as m1
Procedure: as §1

TSHR Phe134 to Ala = target: T4, TSHR Phe134 to Ala (human, UniProt P16473 21-764)
T4 construct: whole, on cells; as m1
Procedure: as §1

TSHR Glu157 to Ala = target: T5, TSHR Glu157 to Ala (human, UniProt P16473 21-764)
T5 construct: whole, on cells; as m1; also called Glu157 mutated to Ala
Procedure: as §1

TSHR Asp160 to Ala = target: T6, TSHR Asp160 to Ala (human, UniProt P16473 21-764)
T6 construct: whole, on cells; as m1
Procedure: as §1

TSHR Glu178 to Ala = target: T7, TSHR Glu178 to Ala (human, UniProt P16473 21-764)
T7 construct: whole, on cells; as m1; also called Glu178 mutated to Ala
Procedure: as §1

TSHR Tyr185 to Ala = target: T8, TSHR Tyr185 to Ala (human, UniProt P16473 21-764)
T8 construct: whole, on cells; as m1
Procedure: as §1

TSHR Asp203 to Ala = target: T9, TSHR Asp203 to Ala (human, UniProt P16473 21-764)
T9 construct: whole, on cells; as m1; also called Asp203 mutated to Ala
Procedure: as §1

TSHR Lys209 to Ala = target: T10, TSHR Lys209 to Ala (human, UniProt P16473 21-764)
T10 construct: whole, on cells; as m1
Procedure: as §1

TSHR Gln235 to Ala = target: T11, TSHR Gln235 to Ala (human, UniProt P16473 21-764)
T11 construct: whole, on cells; as m1
Procedure: as §1

TSHR Lys250 to Ala = target: T12, TSHR Lys250 to Ala (human, UniProt P16473 21-764)
T12 construct: whole, on cells; as m1
Procedure: as §1

TSHR Glu251 to Ala = target: T13, TSHR Glu251 to Ala (human, UniProt P16473 21-764)
T13 construct: whole, on cells; as m1
Procedure: as §1

TSHR Arg255 to Ala = target: T14, TSHR Arg255 to Ala (human, UniProt P16473 21-764)
T14 construct: whole, on cells; as m1; also called Arg255 mutated to Ala
Procedure: as §1

TSHR Arg255 to Asp = target: T15, TSHR Arg255 to Asp (human, UniProt P16473 21-764)
T15 construct: whole, on cells; as m1; also called TSHR with Arg255 mutated to Asp; Arg255 Asp mutation
Procedure: as §1

TSHR Thr257 to Ala = target: T16, TSHR Thr257 to Ala (human, UniProt P16473 21-764)
T16 construct: whole, on cells; as m1
Procedure: as §1

TSHR Trp258 to Ala = target: T17, TSHR Trp258 to Ala (human, UniProt P16473 21-764)
T17 construct: whole, on cells; as m1; also called Trp258 mutated to Ala
Procedure: as §1

TSHR Arg274 to Ala = target: T18, TSHR Arg274 to Ala (human, UniProt P16473 21-764)
T18 construct: whole, on cells; as m1
Procedure: as §1

TSHR Asp276 to Ala = target: T19, TSHR Asp276 to Ala (human, UniProt P16473 21-764)
T19 construct: whole, on cells; as m1; also called Asp276 mutated to Ala
Procedure: as §1

TSHR Tyr279 to Ala = target: T20, TSHR Tyr279 to Ala (human, UniProt P16473 21-764)
T20 construct: whole, on cells; as m1
Procedure: as §1

TSHR Ser281 to Ala = target: T21, TSHR Ser281 to Ala (human, UniProt P16473 21-764)
T21 construct: whole, on cells; as m1; also called Ser281 mutated to Ala
Procedure: as §1

[2] = target: T22, TSHR Arg255 to Ala and Trp258 to Ala (human, UniProt P16473 21-764)
T22 construct: whole, on cells; as m1
Procedure: as §1

TSHR Asp43 to Ala = target: T23, TSHR Asp43 to Ala (human, UniProt P16473 21-764)
T23 construct: whole, on cells; as m1; also called Asp43 mutated to Ala
Procedure: as §1

TSHR Glu61 to Ala = target: T24, TSHR Glu61 to Ala (human, UniProt P16473 21-764)
T24 construct: whole, on cells; as m1; also called Glu61 mutated to Ala
Procedure: as §1

[3] = target: T1, human thyrotropin receptor (TSHR), wild …; remark: listed apart in the source
[4] = target: T25, TSHR Glu157 to Ala and Asp203 to Ala (human, UniProt P16473 21-764)
T25 construct: whole, on cells; as m1

[5] = target: T26, TSHR Glu178 to Ala and Asp203 to Ala (human, UniProt P16473 21-764)
T26 construct: whole, on cells; as m1

[6] = target: T27, TSHR Tyr185 to Ala and Lys183 to Ala (human, UniProt P16473 21-764)
T27 construct: whole, on cells; as m1

[7] = target: T28, TSHR Trp258 to Ala and Tyr185 to Ala (human, UniProt P16473 21-764)
T28 construct: whole, on cells; as m1

[8] = target: T29, TSHR Arg255 to Ala and Tyr185 to Ala (human, UniProt P16473 21-764)
T29 construct: whole, on cells; as m1

[9] = target: T30, TSHR Arg255 to Ala, Lys183 to Ala and Tyr185 to Ala (human, UniProt P16473 21-764)
T30 construct: whole, on cells; as m1

[10] = target: T31, TSHR Arg255 to Ala, Trp258 to Ala and Tyr185 to Ala (human, UniProt P16473 21-764)
T31 construct: whole, on cells; as m1

- Ka [1]: 1.8e+10 M⁻¹
- Ka (TSHR Glu107 to Ala): 6e+09 M⁻¹
- Ka (TSHR Phe130 to Ala): 9e+09 M⁻¹
- Ka (TSHR Phe134 to Ala): 5e+09 M⁻¹
- Ka (TSHR Glu157 to Ala): 1.3e+10 M⁻¹
- Ka (TSHR Asp160 to Ala): 1e+10 M⁻¹
- Ka (TSHR Glu178 to Ala): 1.3e+10 M⁻¹
- Ka (TSHR Tyr185 to Ala): 9e+09 M⁻¹
- Ka (TSHR Asp203 to Ala): 1.4e+10 M⁻¹
- Ka (TSHR Lys209 to Ala): 8e+09 M⁻¹
- Ka (TSHR Gln235 to Ala): 1.1e+10 M⁻¹
- Ka (TSHR Lys250 to Ala): 6e+09 M⁻¹
- Ka (TSHR Glu251 to Ala): 8e+09 M⁻¹
- Ka (TSHR Arg255 to Ala): 8e+09 M⁻¹
- Ka (TSHR Arg255 to Asp): 1.3e+10 M⁻¹
- Ka (TSHR Thr257 to Ala): 7e+09 M⁻¹
- Ka (TSHR Trp258 to Ala): 1.2e+10 M⁻¹
- Ka (TSHR Arg274 to Ala): 5e+09 M⁻¹
- Ka (TSHR Asp276 to Ala): 1.3e+10 M⁻¹
- Ka (TSHR Tyr279 to Ala): 6e+09 M⁻¹
- Ka (TSHR Ser281 to Ala): 9e+09 M⁻¹
- Ka [2]: 1.1e+10 M⁻¹
- Ka (TSHR Asp43 to Ala): 1.4e+10 M⁻¹
- Ka (TSHR Glu61 to Ala): 9e+09 M⁻¹
- Ka [3]: 1.8e+10 M⁻¹
- Ka [4]: 6e+09 M⁻¹
- Ka [5]: 8e+09 M⁻¹
- Ka [6]: 6e+09 M⁻¹
- Ka [7]: 9e+09 M⁻¹
- Ka [8]: 9e+09 M⁻¹
- Ka [9]: 3e+09 M⁻¹
- Ka [10]: 8e+09 M⁻¹
B1: 9D33 MAb (antibody, V domains shown)
VH: DVQIQQPGTELVKPGASVRLSCKASGYTFTTYWMHWVKQRPGQGLEWIGEIDPSDSYTNYNQKFKGKATLTVDKSSSTAYMHLSSLTSEDSAVYYCSRNYGSGYYFDYWGQGTTLTVSS
VL: GVEMTQSPAIMSASPGEKVTMTCSASSSVSYMHWYQQKSGTSPKRWIYDTSKLASGVPARFSGSGSGTSYSLTISSMETEDAATYYCQQWSSNPWTFGGGTKLEIK
